# According to IntAct's records for PubMed 9045636:
# B1: Proto-oncogene tyrosine-protein kinase LCK (Mus musculus), P06240 (parent)
# chain: MGCVCSSNPEDDWMENIDVCENCHYPIVPLDSKISLPIRNGSEVRDPLVTYEGSLPPASPLQDNLVIALHSYEPSHDGDLGFEKGEQLRILEQSGEWWKAQSLTTGQEGFIPFNFVAKANSLEPEPWFFKNLSRKDAERQLLAPGNTHGSFLIRESESTAGSFSLSVRDFDQNQGEVVKHYKIRNLDNGGFYISPRITFPGLHDLVRHYTNASDGLCTKLSRPCQTQKPQKPWWEDEWEVPRETLKLVERLGAGQFGEVWMGYYNGHTKVAVKSLKQGSMSPDAFLAEANLMKQLQHPRLVRLYAVVTQEPIYIITEYMENGSLVDFLKTPSGIKLNVNKLLDMAAQIAEGMAFIEEQNYIHRDLRAANILVSDTLSCKIADFGLARLIEDNEYTAREGAKFPIKWTAPEAINYGTFTIKSDVWSFGILLTEIVTHGRIPYPGMTNPEVIQNLERGYRMVRPDNCPEELYHLMMLCWKERPEDRPTFDYLRSVLDDFFTATEGQYQPQP
# Variants of: B1
# Settings: with khdr1_human KHDRBS1, Q07666
# Chain of khdr1_human KHDRBS1, Q07666 (Q07666 whole entry): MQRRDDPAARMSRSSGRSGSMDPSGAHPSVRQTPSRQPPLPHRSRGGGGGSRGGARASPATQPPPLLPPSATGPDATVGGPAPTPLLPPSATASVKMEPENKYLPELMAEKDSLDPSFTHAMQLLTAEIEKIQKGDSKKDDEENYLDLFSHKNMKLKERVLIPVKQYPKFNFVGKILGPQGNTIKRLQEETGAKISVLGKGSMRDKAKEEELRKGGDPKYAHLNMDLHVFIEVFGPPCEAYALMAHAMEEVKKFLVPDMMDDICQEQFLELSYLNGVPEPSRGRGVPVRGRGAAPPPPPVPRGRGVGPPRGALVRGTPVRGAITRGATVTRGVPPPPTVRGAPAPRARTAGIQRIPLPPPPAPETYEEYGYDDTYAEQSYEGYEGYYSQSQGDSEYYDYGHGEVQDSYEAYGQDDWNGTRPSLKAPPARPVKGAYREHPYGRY
row,Variant,effect of a mutation on the interaction
1,R154K,decreasing interaction

# Variants of: B1
# Settings: with khdr1_human KHDRBS1, Q07666
# Remark: another data set of the same source
row,Variant,effect of a mutation on the interaction
1,P112K,decreasing interaction
